Results taken from the supplement of paper PMC12764529.
± gives the half width of the 95% confidence interval.

Tests used:
[1] = folding stability dG unfold from trypsin proteolysis; higher = more stable
In short: (§1)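 Digests were run with trypsin and chymotrypsin at 11 concentrations in threefold dilutions, plus a no-protease condition, on designed mini-proteins in a PA-tagged cDNA display construct. The mini-proteins were under 80 residues, had no cysteine, and were kept only when AlphaFold2 dimer inter-PAE was above 15. After sequencing, Bayesian fitting of the counts gave K50, from which unfolding free energy was derived against a sequence-predicted unfolded-state K50 and a shared folded-state K50, per protease or combined.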

[2] = folding stability dG unfold from chymotrypsin proteolysis; higher = more stable
In short: as §1

[3] = folding stability dG unfold (combined trypsin and chymotrypsin); higher = more stable
In short: as §1

With “SAGGSAGGSEKTIKITIKVKVKKKVTVKNKNGEKKTFEFEEKTYTLTTIKFDSKEDALKALKKSAGGSAGGS [r12_452_TrROS_Hall]” the “folding stability dG unfold” value [1] was 1.35 ± 0.044 kcal/mol, the “folding stability dG unfold” value [2] was 2.48 ± 0.073 kcal/mol and the “folding stability dG unfold” value [3] was 2.17 ± 0.22 kcal/mol.

For “SAGGSAGGSEPVVIKVTVTNENGEKRTITLPEIEVEPGETIEEIAAALAAEPGVKEVKVEVVPSAGGSAGGS [r12_199_TrROS_Hall]”, the “folding stability dG unfold” value [1] was 0.702 ± 0.022 kcal/mol, the “folding stability dG unfold” value [2] was 0.444 ± 0.039 kcal/mol and the “folding stability dG unfold” value [3] was 0.605 ± 0.069 kcal/mol.

With “SAGGSAGGSERWVKIWFPPGGTLEEASKMIEEWAQQLGLPITKIDEIEWDPGNGRVEITIRLKSAGGSAGGS [r12_131_TrROS]” the “folding stability dG unfold” value [1] was 1.93 ± 0.046 kcal/mol, the “folding stability dG unfold” value [2] was 2.013 ± 0.015 kcal/mol and the “folding stability dG unfold” value [3] was 2.02 ± 0.062 kcal/mol.

For “SAGGSAGGSFFIRVEYPKGKTRTYPIKNGPIEEALEQLPPGWDNVKVSIYNGNKPVEFEIPLPSAGGSAGGS [r12_767_TrROS]”, the “folding stability dG unfold” value [1] was 0.389 ± 0.13 kcal/mol, the “folding stability dG unfold” value [2] was 1.1 ± 0.074 kcal/mol and the “folding stability dG unfold” value [3] was 0.806 ± 0.091 kcal/mol.

With “SAGGSAGGSFKAPPGEKYVLKLRSPENGQEFMVEFTPDNIKISNPNDEKMPFPPDDITDVKDVSAGGSAGGS [r20_35_TrROS]” the “folding stability dG unfold” value [1] was -0.612 ± 0.33 kcal/mol, the “folding stability dG unfold” value [2] was 0.0465 ± 0.24 kcal/mol and the “folding stability dG unfold” value [3] was -0.109 ± 0.17 kcal/mol.

For “SAGGSAGGSFRIKEIEYKPPKGMIEVEIEFPNGRPIKIHINPDEGWDPIYFGGKPIFPIRIEPSAGGSAGGS [r12_789_TrROS]”, the “folding stability dG unfold” value [1] was -0.206 ± 0.1 kcal/mol, the “folding stability dG unfold” value [2] was 0.859 ± 0.13 kcal/mol and the “folding stability dG unfold” value [3] was 0.534 ± 0.11 kcal/mol.

In the case of “SAGGSAGGSGDKDEVDPNKNISPIPPVKATIFPPDGTPRTVTFTSEEELKAYAEARGWTIEVPSAGGSAGGS [r12_244_JUSTAS]”, the “folding stability dG unfold” value [1] is reported as 0.000698 ± 0.12 kcal/mol, the “folding stability dG unfold” value [2] is reported as 0.231 ± 0.29 kcal/mol and the “folding stability dG unfold” value [3] is reported as 0.318 ± 0.23 kcal/mol.

With “SAGGSAGGSGEELRNLLANVKKVTVFPNADGGLGVLIELEPEEPEERTIVLNYDQLAELLALGSAGGSAGGS [r12_466_TrMRF]” the “folding stability dG unfold” value [1] was 0.916 ± 0.026 kcal/mol, the “folding stability dG unfold” value [2] was 0.813 ± 0.11 kcal/mol and the “folding stability dG unfold” value [3] was 0.936 ± 0.15 kcal/mol.

With “SAGGSAGGSGGFLVLEFEIEVDPEDPEKALAVVEALVESLGFEPVLIEVEEDENRVRVRVLLGSAGGSAGGS [r12_731_TrMRF]” the “folding stability dG unfold” value [1] was 2.93 ± 0.099 kcal/mol, the “folding stability dG unfold” value [2] was 3.11 ± 0.13 kcal/mol and the “folding stability dG unfold” value [3] was 3.1 ± 0.13 kcal/mol.

With “SAGGSAGGSGGMMKVIVSVSPGEEAVEKVNKLVNETDLPPIEVIIIPHSPDDPIVVAILLLLLSAGGSAGGS [r12_649_JUSTAS]” the “folding stability dG unfold” value [1] was 2.33 ± 0.053 kcal/mol, the “folding stability dG unfold” value [2] was 3.12 ± 0.032 kcal/mol and the “folding stability dG unfold” value [3] was 2.73 ± 0.057 kcal/mol.

With “SAGGSAGGSGIEELKKAGFEIVRIERKEDGTLRLTVRNKETEETKTIEITLPEAEVELVEPPESAGGSAGGS [r12_166_TrROS_Hall]” the “folding stability dG unfold” value [1] was 3.36 ± 0.11 kcal/mol, the “folding stability dG unfold” value [2] was 3.74 ± 0.076 kcal/mol and the “folding stability dG unfold” value [3] was 3.57 ± 0.093 kcal/mol.

For “SAGGSAGGSGKPEKVKITYTKDTNTNKYTATITFENGPTYKITFPTKTPEEAIEQAKKLIEASSAGGSAGGS [r12_339_TrMRF]”, the “folding stability dG unfold” value [1] was 1.62 ± 0.061 kcal/mol, the “folding stability dG unfold” value [2] was 2.05 ± 0.032 kcal/mol and the “folding stability dG unfold” value [3] was 1.94 ± 0.15 kcal/mol.

For “SAGGSAGGSGMKITSISKLPDGSYLVTTQDPGKGTPTTVPFSTPEEGKKLKKELEEKGGKVELSAGGSAGGS [r20_177_JUSTAS]”, the “folding stability dG unfold” value [1] was -0.0663 ± 0.1 kcal/mol, the “folding stability dG unfold” value [2] was -0.0692 ± 0.11 kcal/mol and the “folding stability dG unfold” value [3] was -0.0711 ± 0.18 kcal/mol.

For “SAGGSAGGSGMMFELAFREIKYSPNDSVTIKAELPDGSSITIPTKKGEIKFKLPENGYVKVLGSAGGSAGGS [r12_746_JUSTAS]”, the “folding stability dG unfold” value [1] was -0.281 ± 0.34 kcal/mol, the “folding stability dG unfold” value [2] was -0.514 ± 0.55 kcal/mol and the “folding stability dG unfold” value [3] was -0.262 ± 0.2 kcal/mol.

For “SAGGSAGGSGMMLKIEIPVEDPGSEEKAKKIAEELAKKLGLSPKEVKIKIKVIPKLPPEEILNSAGGSAGGS [r12_1066_JUSTAS]”, the “folding stability dG unfold” value [1] was 0.471 ± 0.077 kcal/mol, the “folding stability dG unfold” value [2] was 0.531 ± 0.11 kcal/mol and the “folding stability dG unfold” value [3] was 0.582 ± 0.22 kcal/mol.

For “SAGGSAGGSGMMTVELTETIVSETSVVTEKVPEKGEFIVEVLETSVSVVRRTLPLALYQALLESAGGSAGGS [r12_723_JUSTAS]”, the “folding stability dG unfold” value [1] was 0.866 ± 0.071 kcal/mol, the “folding stability dG unfold” value [2] was 0.631 ± 0.097 kcal/mol and the “folding stability dG unfold” value [3] was 0.789 ± 0.087 kcal/mol.

With “SAGGSAGGSGMMYKVTVEIYNPANGEKIGTIEREVTSEEEAKAEIEKELPLENVKVKITIEGPSAGGSAGGS [r12_578_JUSTAS]” the “folding stability dG unfold” value [1] was 0.846 ± 0.084 kcal/mol, the “folding stability dG unfold” value [2] was 0.818 ± 0.18 kcal/mol and the “folding stability dG unfold” value [3] was 0.983 ± 0.25 kcal/mol.

With “SAGGSAGGSGMTEVVAEKKYPNEVILVTKEPDSYYIVKVTLKDGKVVEKENLGKISPDDPSILSAGGSAGGS [r12_154_JUSTAS]” the “folding stability dG unfold” value [1] was -0.0464 ± 0.065 kcal/mol, the “folding stability dG unfold” value [2] was -0.458 ± 0.39 kcal/mol and the “folding stability dG unfold” value [3] was -0.0617 ± 0.22 kcal/mol.

With “SAGGSAGGSGMTTTLTTEPRPDSTVVTTTTTTPTSVTTTTTVYDPDGNVVSTTTTTTPLPATSSAGGSAGGS [r12_710_JUSTAS]” the “folding stability dG unfold” value [1] was 1.73 ± 0.059 kcal/mol, the “folding stability dG unfold” value [2] was 0.257 ± 0.018 kcal/mol and the “folding stability dG unfold” value [3] was 1.11 ± 0.028 kcal/mol.

With “SAGGSAGGSGNSKLTATLTLEFYDPKTGKKIAKIELKPVITTLPNGTAKIDVEYKITFTNEDDSAGGSAGGS [r12_629_TrMRF]” the “folding stability dG unfold” value [1] was 2.6 ± 0.14 kcal/mol, the “folding stability dG unfold” value [2] was 3.74 ± 0.11 kcal/mol and the “folding stability dG unfold” value [3] was 3.39 ± 0.11 kcal/mol.

With “SAGGSAGGSGSFSLSFPDADGVSVTLDPNTGIVTMSFNRPDANYTITLERYPDSIVVKEIKLPSAGGSAGGS [r20_60_JUSTAS]” the “folding stability dG unfold” value [1] was 1.05 ± 0.026 kcal/mol, the “folding stability dG unfold” value [2] was 1.48 ± 0.1 kcal/mol and the “folding stability dG unfold” value [3] was 1.32 ± 0.062 kcal/mol.
